One block for each binder: values may come before it.
Columns and labels:
[1] = molecular target: lysate of the colon cancer cell line colon 137 (COU-1 antigen positive); test: ELISA on coated colon 137 lysate
[2] = molecular target: K8(1-124)/K18(1-124) heterotypic complex (human) (UniProt P05787); test: SPR (BIAcore), complex immobilized, COU-1 injected
[3] = molecular target: K8(1-124)/intact K18 heterotypic complex (human) (UniProt P05787); test: SPR (BIAcore), complex immobilized, COU-1 injected

concentration needed for saturation [1]: 1 µg/mL | Ka [2]: 9.5e+08 M⁻¹ | Kd [2]: 1.05 nM | koff [2]: 0.0003 s⁻¹ | kon [2]: 280000 M⁻¹ s⁻¹ | Ka [3]: 1.4e+09 M⁻¹ | Kd [3]: 0.71 nM | koff [3]: 0.00012 s⁻¹ | kon [3]: 170000 M⁻¹ s⁻¹
B1: human monoclonal IgM antibody COU-1 (antibody, V domains shown)
VH: GAEVKKPGASVKVSCKASDYTFSSYYMHWVRQAPGQGLEWMGIINPSGGSTSYAQKFQGRVTMTRDTSTNTVYMELSSLRSEDTAVYYCARDQVVVAATLSNYGMDVWGQGTTVTVSS
VL: ELTQSPGTLSLSPGERATLSCRASQSVSSSYLAWYQQKPGQAPRLLIYDASNRATGIPARFSGSGSGTDFTLTISSLEPEDFAVYYCQQGTNWGIAFGQGTRLDIKR

concentration needed for saturation [1]: 20 µg/mL
B2: recombinant B9165 Fab (Fab, V domains shown)
VH: B1 VH
VL: B1 VL
